In patent US11324803B2, “Methods and compositions for treatment of Gaucher Disease via modulation of C5a receptor” (Children's Hospital Medical Center, priority 2015, dated 2022):

Tests used:
[1] = molecular target: T1, C5aR1 (Mus musculus, UniProt P30993); assay: C5aR antagonist A8^Δ71-73 (C5aRA) i.p. treatment of Gaucher disease-prone 9V/null mice; assay type: in vivo; details: for pro-inflammatory cytokine (and chemokine) production: DCs and T cells of C5aRA-treated 9V/null mice
T1 construct: endogenous in cells; host or cells: WT and 9V/null mice (mixed FVB/C57BL 6J/129SvEvBrd background), in vivo
T1 sequence (P30993 1-351): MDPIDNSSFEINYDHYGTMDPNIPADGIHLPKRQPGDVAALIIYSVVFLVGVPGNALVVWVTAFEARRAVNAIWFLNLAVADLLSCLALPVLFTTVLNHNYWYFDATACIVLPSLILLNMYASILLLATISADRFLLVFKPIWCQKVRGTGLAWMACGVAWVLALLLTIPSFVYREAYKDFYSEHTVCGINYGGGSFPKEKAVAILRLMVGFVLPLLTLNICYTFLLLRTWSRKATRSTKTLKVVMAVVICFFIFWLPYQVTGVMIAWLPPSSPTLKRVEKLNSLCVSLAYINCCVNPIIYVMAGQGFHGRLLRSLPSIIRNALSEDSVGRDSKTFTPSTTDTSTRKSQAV
Description: Sera from human patients with Gaucher disease (n=10) and healthy volunteers (n=15) were from the freezer and de-identified. Human patients with Gaucher disease were diagnosed at Cincinnati Children's Hospital Medical Center (CCHMC). […] The study was approved by the ethics committee at CCHMC. In vivo C5aR1 deficiency or blockade in 9V/null mice and in a CBE-induced mouse model of Gaucher disease. To assess the impact of genetic or pharmacological targeting of C5aR1 on the inflammatory response in Gaucher disease, WT (n=10) and C5aR1^−/− mice (n=10) were treated with conduritol B epoxide (CBE), which is an irreversible inhibitor of acid β-glucosidase^24. More specifically, both mouse strains were injected intraperitoneally (i.p.) with 100 mg CBE/kg body weight or vehicle (PBS)/day for up to 60 days, which was the termination point of these experiments. After 60 days of the indicated treatment with CBE, immune cells (MΦs, DCs, and T cells) were purified from lung of these mouse strains and used for measurement of GC, costimulatory molecules, and several of the pro-inflammatory cytokines. In additional experiments, WT (n=15) or 9V/null mice (n=15) were injected with 100 μl of the C5aR antagonist A8^Δ71-73 (i.p. 0.5 mg/kg) or vehicle (100 μl, PBS) on five consecutive days. Five days after the final C5aRA treatment, liver, spleen and lung were separated and measured for GC accumulation. Further, DCs and CD4^+ T cells were purified from the lung of the indicated mouse strains and measured for costimulatory molecule expression and the production of pro-inflammatory cytokines. Preparation of tissue cells. Liver, spleen, lung and BM were harvested aseptically. Single cell suspensions from liver and lung were obtained from minced pieces that were treated with Liberase Cl (0.5 mg/mL) and DNase (0.5 mg/mL) in RPMI (45 min, 37° C.). Single cell suspensions from spleen were obtained by grinding and then filtration through a 70-micron cell strainer. […] For BM cells, femurs, tibias and humeri were flushed with sterile phosphate buffered saline (PBS), followed by RBC lysis (155 mM NH4Cl, 10 mM NaHCO3, 0.1 mM EDTA), passage through a strainer. Cells were then pelleted by centrifugation at 350×g. Viable cells were counted using a Neubauer chamber and trypan blue exclusion. DCs, MΦs, and CD4^+ T lymphocytes were purified from single cell suspensions of liver, spleen, and lung using CD11c, CD11b, and CD4 (L3T4) microbeads according to the manufacturer's protocol. The purity of the cells was ˜90%-95%.
Tissue cells were suspended in PBS containing 1% BSA. After incubation (15 min, 4° C.) with Fc©R-blocking antibody 2.4G2, cells were stained (45 min, 4° C.) with the following antibodies to identify APCs and T cell: CD4 for T cells; CD11b and F4/80 for Ms; and CD11b and CD11c for DCs. Cells were also stained with the respective isotype antibodies as controls. MΦs were first identified by their typical FSC/SSC pattern, F4/80 and CD11 expression. DCs were identified as CD11c^+CD11b^+ cells. Further, CD40, CD80 CD86 and C5aR1 expression was determined in tissue DCs. T cells were first characterized by their FSC/SSC pattern and CD3 staining. CD3^+T cells were further stained for CD4, CD40L and CD69 expression. A total of […] were acquired for each cell type isolated from the different organs. Specific surface expression was assessed relative to the expression of the corresponding isotype control antibody. Fortessa-I, Fortessa-II, and LSRII flow cytometers were used to characterize the cells. FCS express (version 4; DeNovo Software) was used to analyze the data.
Lipids were extracted from tissues (5 mg; liver, spleen, and lung), purified immune cells, (e.g., MΦ, DCs, and CD4^+T) and GC-specific IgG2a by chloroform and methanol^2, 25, 26. […]

[2] = molecular target: T2, mouse C5aR2 (C5L2) (Mus musculus, UniProt Q8BW93); details: cited from earlier work
T2 sequence (Q8BW93 1-344): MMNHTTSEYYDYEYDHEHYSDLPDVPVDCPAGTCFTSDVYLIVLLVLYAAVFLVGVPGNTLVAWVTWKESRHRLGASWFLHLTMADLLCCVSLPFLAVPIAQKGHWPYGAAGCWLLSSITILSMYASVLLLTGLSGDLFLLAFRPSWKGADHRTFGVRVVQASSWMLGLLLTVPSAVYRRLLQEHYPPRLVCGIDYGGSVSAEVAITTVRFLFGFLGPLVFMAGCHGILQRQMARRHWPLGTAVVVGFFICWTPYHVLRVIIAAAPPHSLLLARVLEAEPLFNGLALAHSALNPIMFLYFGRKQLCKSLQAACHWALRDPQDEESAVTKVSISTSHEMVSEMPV

[3] = C5aRA-treated 9V/null mice, i.p. 0.5 mg/kg on five consecutive days, CD68+ immunohistochemistry
[4] = C5aRA-treated vs vehicle-injected 9V/null mice, ESI-LC-MS/MS
[5] = DC/CD4+ T cell co-culture 48 h from C5aRA-treated mice, ELISA
[6] = in response to C5aRA treatment, flow cytometry

B1: Thr Leu Gln Lys Lys Ile Glu Glu Ile Ala Ala Lys Tyr Lys His Ser Val Val Lys Lys Cys Cys Tyr Asp Gly Ala Ala Val Asn Asn Asp Glu Thr Cys Glu Gln Arg Ala Ala Arg Ile Ser Leu Gly Pro Arg Cys Ile Lys Ala … (protein)
chain: TLQKKIEEIAAKYKHSVVKKCCYDGAAVNNDETCEQRAARISLGPRCIKAFTECCVVASQLRANISFKRS
modifications: mutant C5a-(1-66, Cys27A1a) -A8B-Del. 71-73 of human C5a
notes: positions 27 and 68-71 of human C5a mutated and positions 72-74 deleted
[1]; C5aRA-treated 9V/null mice
  co-stimulatory molecule expression in DCs and CD4+ T cells: marked reduction
[1]; [3]
  MΦ infiltration of the liver: substantially reduced
  MΦ infiltration of the lung: substantially reduced
  MΦ infiltration of the spleen: substantially reduced
[1]; C5aRA-treated 9V/null mice, listed as C5aR antagonist A8^Δ71-73
  co-stimulatory molecule expression in DCs and CD4+ T cells: decreased levels
[1]; C5aRA-treated 9V/null mice, liver and spleen (FIG. 12)
  GCs: marked reduction
[1]; [4]
  GC storage in liver: significantly decreased
  GC storage in lung: significantly decreased
  GC storage in spleen: significantly decreased
[1]; [5]
  IFN-γ production: markedly decreased
  IL-1 production: markedly decreased
  IL-6 production: markedly decreased
  IL-17 production: markedly decreased
  TNF-α production: markedly decreased
[1]
  pro-inflammatory cytokine (and chemokine) production: marked reduction
[1]; listed as C5aR antagonist A8^Δ71-73
  pro-inflammatory cytokine (and chemokine) production: less
[1]; MΦs of treated 9V/null mice
  GC accumulation in MΦs: marked reduction
[1]; [6]
  CD40L expression in CD4+ T cells: significantly reduced
  CD40 expression in pulmonary DCs: significantly reduced
  CD69 expression in CD4+ T cells: significantly reduced
  CD80 expression in pulmonary DCs: significantly reduced
  CD86 expression in pulmonary DCs: significantly reduced
[1]; mouse model of Gaucher disease, i.p.
  MΦs, DC and T cells mediated immune inflammation: significantly reduces
[1]; treated 9V/null mice
  loss of CD41+ platelets: decreased loss
  loss of Ter119+ RBCs: decreased loss
[2]
  affinity to bind mouse C5aR2 (C5L2): high affinity
